Measurements reported in patent US20130064834A1 (published 2013).
Like-named read-outs stand apart in the source and are kept apart here. Values belong to the binder of their own block, whether it stands above or below them.

Legend:
[1] = molecular target: T1, tagged rhesus monkey (Macaca mulata) PCSK9 (rhesus monkey (Macaca mulata), UniProt A8T666 31-692); experiment: SPR, mAb captured on anti-hFc, 37C
T1 construct: also called mmPCSK9-mmh; mmPCSK9

[2] = molecular target: T2, hPCSK9(D374Y)-mmh (human, UniProt Q8NBP7 31-692); experiment: SPR, mAb captured on anti-hFc, 37C
T2 construct: also called hPCSK(D374Y)-mmh

[3] = molecular target: T3, cynomolgus monkey (Macaca fascicularis) PCSK9, myc-myc-his tagged (cynomolgus monkey (Macaca fascicularis), UniProt A8T662 31-692 (Macaca nemestrina entry), limits assumed); experiment: SPR, mAb captured on anti-hFc, 37C
T3 construct: also called mfPCSK9-mmh; mfPCSK9

[4] = molecular target: T4, Human PCSK9-myc-myc-his (human, UniProt Q8NBP7 31-692); experiment: SPR, mAb captured on anti-hFc, 37C
T4 construct: also called hPCSK9-mmh; hPCSK9

[5] = molecular target: T1, tagged rhesus monkey (Macaca mulata) …; experiment: SPR, mAb captured on anti-hFc, 37C; remark: listed apart in the source
[6] = molecular target: T4, Human PCSK9-myc-myc-his; experiment: SPR, mAb captured on anti-hFc, 37C; remark: listed apart in the source
[7] = molecular target: T4, Human PCSK9-myc-myc-his; experiment: SPR, mAb captured, 37C
Experimental: Each selected antibody was captured at a flowrate of 2 μl/min for 6 min on a goat anti-human IgG polyclonal antibody surface created through direct chemical coupling to a BIACORE™ chip to form a captured antibody surface.

T1 sequence (A8T666 31-692 limits assumed): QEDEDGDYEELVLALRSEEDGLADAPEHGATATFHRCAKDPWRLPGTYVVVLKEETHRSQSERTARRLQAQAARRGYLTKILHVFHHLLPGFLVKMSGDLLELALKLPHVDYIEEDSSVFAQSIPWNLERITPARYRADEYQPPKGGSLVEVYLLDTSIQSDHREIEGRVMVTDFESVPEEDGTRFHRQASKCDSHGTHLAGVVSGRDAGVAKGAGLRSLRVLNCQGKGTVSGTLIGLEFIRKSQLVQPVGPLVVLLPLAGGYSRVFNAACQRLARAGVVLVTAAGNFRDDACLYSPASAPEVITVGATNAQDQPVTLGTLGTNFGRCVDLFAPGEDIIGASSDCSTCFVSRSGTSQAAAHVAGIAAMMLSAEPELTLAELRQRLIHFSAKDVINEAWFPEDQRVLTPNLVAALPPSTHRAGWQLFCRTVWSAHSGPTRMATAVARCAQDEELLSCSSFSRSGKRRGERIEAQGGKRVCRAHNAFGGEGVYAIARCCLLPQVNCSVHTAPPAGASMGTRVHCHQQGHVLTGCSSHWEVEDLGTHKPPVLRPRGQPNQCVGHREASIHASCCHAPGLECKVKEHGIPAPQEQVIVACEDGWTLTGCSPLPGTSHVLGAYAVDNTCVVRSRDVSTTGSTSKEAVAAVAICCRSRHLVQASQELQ
T3 sequence (A8T662 31-692 limits assumed): as the sequence (A8T666 31-692 limits assumed) above, with P607A, K639E counted along it

Kd [1]: 1.6 nM
T1/2 [1]: 26 min
Kd [2]: 2.2 nM
T1/2 [2]: 14 min
Kd [3]: 3.8 nM
T1/2 [3]: 11 min
Kd [4]: 2.4 nM
T1/2 [4]: 22 min
B1: H1M300N (antibody, V domains shown)
VH: EMQLVESGGGLVQPGGSLRLSCAASGFTFSSHWMKWVRQAPGKGLEWVANINQDGSEKYYVDSVKGRFTISRDNAKNSLFLQMNSLRAEDTAVYYCARDIVLMVYDMDYYYYGMDVWGQGTTVTVSS
VL: not shown
notes: Fully human version made in CHO cells

B2: H1H316P (antibody, V domains shown)
VH: EVQLVESGGGLVQPGGSLRLSCAASGFTFNNYAMNWVRQAPGKGLDWVSTISGSGGTTNYADSVKGRFIISRDSSKHTLYLQMNSLRAEDTAVYYCAKDSNWGNFDLWGRGTLVTVSS
VL: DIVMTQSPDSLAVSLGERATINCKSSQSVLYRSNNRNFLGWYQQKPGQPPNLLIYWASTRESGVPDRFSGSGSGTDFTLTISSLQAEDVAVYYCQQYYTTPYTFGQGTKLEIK
notes: Fully human mAb made in CHO cells; also called mAb316P
Kd [5]: 1.8 nM
T1/2 [5]: 21 min
Kd [6]: 1.8 nM
T1/2 [6]: 9 min
Kd [7]: 1.08 nM
T1/2 [7]: 11 min
